Numbered stars: 1 amine (or outer) side, 2 acyl side, 3 side chain; on linkers, the order of the positions; unused ones are H or OH. Square brackets hold non-standard residues; d marks the D form. * marks the point of attachment. Hyp(Bzl) = O-benzyl-trans-4-hydroxyproline, O=C([C@@H]1C[C@@H](OCc2ccccc2)CN1[*:1])[*:2]; Asp(NHPen) = N-omega-pentylasparagine, CCCCCNC(=O)C[C@H](N[*:1])C(=O)[*:2]; pY = N[C@@H](Cc1ccc(OP(=O)(O)O)cc1)C(=O)O; Phe(4-Cl) = N[C@@H](Cc1ccc(Cl)cc1)C(=O)O; Pro(4S-NH2) = N[C@@H]1CN[C@H](C(=O)O)C1; Phe(3-F) = N[C@@H](Cc1cccc(F)c1)C(=O)O; Phe(4-F) = N[C@@H](Cc1ccc(F)cc1)C(=O)O; Ala(Pip) = (4-piperidin-1-yl)alanine; Phe(2-F) = N[C@@H](Cc1ccccc1F)C(=O)O; Arg(Me) = CNC(=N)NCCC[C@H](N)C(=O)O; Hyp = O=C(O)[C@@H]1C[C@@H](O)CN1; dNMeF = CN[C@H](Cc1ccccc1)C(=O)O; His(3Me) = 3-methylhistidine; Orn = NCCC[C@H](N)C(=O)O; Aib = CC(C)(N)C(=O)O; Glycolyl = O=C(CO)*; Ahx = NCCCCCC(=O)O; azaGly = NNC(=O)O
B1: des(1)-Ac-[D-Tyr2,Aib3,Thr5,Phe(4Cl)6,AzaGly7,Arg(Me)9,Trp10]MS10 (peptide)
peptide: Ac-[dY][Aib]NT[Phe(4-Cl)][azaGly]L[Arg(Me)]W-NH2
SMILES: CNC(=N)NCCC[C@H](NC(=O)[C@H](CC(C)C)NC(=O)NNC(=O)[C@H](Cc1ccc(Cl)cc1)NC(=O)[C@@H](NC(=O)[C@H](CC(N)=O)NC(=O)C(C)(C)NC(=O)[C@@H](Cc1ccc(O)cc1)NC(C)=O)[C@@H](C)O)C(=O)N[C@@H](Cc1c[nH]c2ccccc12)C(N)=O
B2: des(1)-Ac-[D-Tyr2,Orn3,Thr5,AzaGly7,Arg(Me)9,Trp10]MS10 (peptide)
peptide: Ac-[dY][Orn]NTF[azaGly]L[Arg(Me)]W-NH2
SMILES: CNC(=N)NCCC[C@H](NC(=O)[C@H](CC(C)C)NC(=O)NNC(=O)[C@H](Cc1ccccc1)NC(=O)[C@@H](NC(=O)[C@H](CC(N)=O)NC(=O)[C@H](CCCN)NC(=O)[C@@H](Cc1ccc(O)cc1)NC(C)=O)[C@@H](C)O)C(=O)N[C@@H](Cc1c[nH]c2ccccc12)C(N)=O
B3: des(1)-Ac-[D-Tyr2,Thr3,Thr5,AzaGly7,Arg(Me)9,Trp10]MS10 (peptide)
peptide: Ac-[dY]TNTF[azaGly]L[Arg(Me)]W-NH2
SMILES: CNC(=N)NCCC[C@H](NC(=O)[C@H](CC(C)C)NC(=O)NNC(=O)[C@H](Cc1ccccc1)NC(=O)[C@@H](NC(=O)[C@H](CC(N)=O)NC(=O)[C@@H](NC(=O)[C@@H](Cc1ccc(O)cc1)NC(C)=O)[C@@H](C)O)[C@@H](C)O)C(=O)N[C@@H](Cc1c[nH]c2ccccc12)C(N)=O
B4: des(1-2)-Ac-[Acp3,Thr5,AzaGly7,Arg(Me)9,Trp10]MS10 (peptide)
peptide: Ac-[Ahx]NTF[azaGly]L[Arg(Me)]W-NH2
SMILES: CNC(=N)NCCC[C@H](NC(=O)[C@H](CC(C)C)NC(=O)NNC(=O)[C@H](Cc1ccccc1)NC(=O)[C@@H](NC(=O)[C@H](CC(N)=O)NC(=O)CCCCCNC(C)=O)[C@@H](C)O)C(=O)N[C@@H](Cc1c[nH]c2ccccc12)C(N)=O
B5: des(1)-Ac-[D-Tyr2,Tyr(PO3H2)3,Thr5,AzaGly7,Arg(Me)9,Trp10]MS10 (peptide)
peptide: Ac-[dY][pY]NTF[azaGly]L[Arg(Me)]W-NH2
SMILES: CNC(=N)NCCC[C@H](NC(=O)[C@H](CC(C)C)NC(=O)NNC(=O)[C@H](Cc1ccccc1)NC(=O)[C@@H](NC(=O)[C@H](CC(N)=O)NC(=O)[C@H](Cc1ccc(OP(=O)(O)O)cc1)NC(=O)[C@@H](Cc1ccc(O)cc1)NC(C)=O)[C@@H](C)O)C(=O)N[C@@H](Cc1c[nH]c2ccccc12)C(N)=O
B6: des(1)-Glycoloyl-[D-Tyr2,Hyp3,Thr5,AzaGly7,Arg(Me)9,Trp10]MS10 (peptide)
peptide: Glycolyl-[dY][Hyp]NTF[azaGly]L[Arg(Me)]W-NH2
SMILES: CNC(=N)NCCC[C@H](NC(=O)[C@H](CC(C)C)NC(=O)NNC(=O)[C@H](Cc1ccccc1)NC(=O)[C@@H](NC(=O)[C@H](CC(N)=O)NC(=O)[C@@H]1C[C@@H](O)CN1C(=O)[C@@H](Cc1ccc(O)cc1)NC(=O)CO)[C@@H](C)O)C(=O)N[C@@H](Cc1c[nH]c2ccccc12)C(N)=O
B7: des(1-2)-Ac-[D-Tyr3,Thr5,AzaGly7,Arg(Me)9,Trp10]MS10 (peptide)
peptide: Ac-[dY]NTF[azaGly]L[Arg(Me)]W-NH2
SMILES: CNC(=N)NCCC[C@H](NC(=O)[C@H](CC(C)C)NC(=O)NNC(=O)[C@H](Cc1ccccc1)NC(=O)[C@@H](NC(=O)[C@H](CC(N)=O)NC(=O)[C@@H](Cc1ccc(O)cc1)NC(C)=O)[C@@H](C)O)C(=O)N[C@@H](Cc1c[nH]c2ccccc12)C(N)=O
B8: des(1)-Ac-[D-Tyr2,Pro(4NH2)3,Thr5,AzaGly7,Arg(Me)9,Trp10]MS10 (peptide)
peptide: Ac-[dY][Pro(4S-NH2)]NTF[azaGly]L[Arg(Me)]W-NH2
SMILES: CNC(=N)NCCC[C@H](NC(=O)[C@H](CC(C)C)NC(=O)NNC(=O)[C@H](Cc1ccccc1)NC(=O)[C@@H](NC(=O)[C@H](CC(N)=O)NC(=O)[C@@H]1C[C@H](N)CN1C(=O)[C@@H](Cc1ccc(O)cc1)NC(C)=O)[C@@H](C)O)C(=O)N[C@@H](Cc1c[nH]c2ccccc12)C(N)=O
B9: des(1)-Ac-[D-Tyr2,Hyp(Bzl)3,Thr5,AzaGly7,Arg(Me)9,Trp10]MS10 (peptide)
peptide: Ac-[dY][Hyp(Bzl)]NTF[azaGly]L[Arg(Me)]W-NH2
SMILES: CNC(=N)NCCC[C@H](NC(=O)[C@H](CC(C)C)NC(=O)NNC(=O)[C@H](Cc1ccccc1)NC(=O)[C@@H](NC(=O)[C@H](CC(N)=O)NC(=O)[C@@H]1C[C@@H](OCc2ccccc2)CN1C(=O)[C@@H](Cc1ccc(O)cc1)NC(C)=O)[C@@H](C)O)C(=O)N[C@@H](Cc1c[nH]c2ccccc12)C(N)=O
B10: des(1)-Ac-[D-Tyr2,D-NMePhe3,Thr5,AzaGly7,Arg(Me)9,Trp10]MS10 (peptide)
peptide: Ac-[dY][dNMeF]NTF[azaGly]L[Arg(Me)]W-NH2
SMILES: CNC(=N)NCCC[C@H](NC(=O)[C@H](CC(C)C)NC(=O)NNC(=O)[C@H](Cc1ccccc1)NC(=O)[C@@H](NC(=O)[C@H](CC(N)=O)NC(=O)[C@@H](Cc1ccccc1)N(C)C(=O)[C@@H](Cc1ccc(O)cc1)NC(C)=O)[C@@H](C)O)C(=O)N[C@@H](Cc1c[nH]c2ccccc12)C(N)=O
B11: des(1)-Ac-[D-Tyr2,Gly3,Thr5,Phe(2F)6,AzaGly7,Arg(Me)9,Trp10]MS10 (peptide)
peptide: Ac-[dY]GNT[Phe(2-F)][azaGly]L[Arg(Me)]W-NH2
SMILES: CNC(=N)NCCC[C@H](NC(=O)[C@H](CC(C)C)NC(=O)NNC(=O)[C@H](Cc1ccccc1F)NC(=O)[C@@H](NC(=O)[C@H](CC(N)=O)NC(=O)CNC(=O)[C@@H](Cc1ccc(O)cc1)NC(C)=O)[C@@H](C)O)C(=O)N[C@@H](Cc1c[nH]c2ccccc12)C(N)=O
B12: des(1)-Ac-[D-Tyr2,Aib3,Thr5,Phe(2F)6,AzaGly7,Arg(Me)9,Trp10]MS10 (peptide)
peptide: Ac-[dY][Aib]NT[Phe(2-F)][azaGly]L[Arg(Me)]W-NH2
SMILES: CNC(=N)NCCC[C@H](NC(=O)[C@H](CC(C)C)NC(=O)NNC(=O)[C@H](Cc1ccccc1F)NC(=O)[C@@H](NC(=O)[C@H](CC(N)=O)NC(=O)C(C)(C)NC(=O)[C@@H](Cc1ccc(O)cc1)NC(C)=O)[C@@H](C)O)C(=O)N[C@@H](Cc1c[nH]c2ccccc12)C(N)=O
B13: des(1)-Ac-[D-Tyr2,Gly3,Thr5,Phe(3F)6,AzaGly7,Arg(Me)9,Trp10]MS10 (peptide)
peptide: Ac-[dY]GNT[Phe(3-F)][azaGly]L[Arg(Me)]W-NH2
SMILES: CNC(=N)NCCC[C@H](NC(=O)[C@H](CC(C)C)NC(=O)NNC(=O)[C@H](Cc1cccc(F)c1)NC(=O)[C@@H](NC(=O)[C@H](CC(N)=O)NC(=O)CNC(=O)[C@@H](Cc1ccc(O)cc1)NC(C)=O)[C@@H](C)O)C(=O)N[C@@H](Cc1c[nH]c2ccccc12)C(N)=O
B14: des(1)-Ac-[D-Tyr2,Aib3,Thr5,Phe(3F)6,AzaGly7,Arg(Me)9,Trp10]MS10 (peptide)
peptide: Ac-[dY][Aib]NT[Phe(3-F)][azaGly]L[Arg(Me)]W-NH2
SMILES: CNC(=N)NCCC[C@H](NC(=O)[C@H](CC(C)C)NC(=O)NNC(=O)[C@H](Cc1cccc(F)c1)NC(=O)[C@@H](NC(=O)[C@H](CC(N)=O)NC(=O)C(C)(C)NC(=O)[C@@H](Cc1ccc(O)cc1)NC(C)=O)[C@@H](C)O)C(=O)N[C@@H](Cc1c[nH]c2ccccc12)C(N)=O
B15: des(1)-Ac-[D-Tyr2,D-Trp3,Asp(NHPen)4,Thr5,AzaGly7,Arg(Me)9,Trp10]MS10 (peptide)
peptide: Ac-[dY][dW][Asp(NHPen)]TF[azaGly]L[Arg(Me)]W-NH2
SMILES: CCCCCNC(=O)C[C@H](NC(=O)[C@@H](Cc1c[nH]c2ccccc12)NC(=O)[C@@H](Cc1ccc(O)cc1)NC(C)=O)C(=O)N[C@H](C(=O)N[C@@H](Cc1ccccc1)C(=O)NNC(=O)N[C@@H](CC(C)C)C(=O)N[C@@H](CCCNC(=N)NC)C(=O)N[C@@H](Cc1c[nH]c2ccccc12)C(N)=O)[C@@H](C)O
B16: des(1)-Ac-[D-Tyr2,Hyp3,Thr5,Phe(4F)6,AzaGly7,Arg(Me)9,Trp10]MS10 (peptide)
peptide: Ac-[dY][Hyp]NT[Phe(4-F)][azaGly]L[Arg(Me)]W-NH2
SMILES: CNC(=N)NCCC[C@H](NC(=O)[C@H](CC(C)C)NC(=O)NNC(=O)[C@H](Cc1ccc(F)cc1)NC(=O)[C@@H](NC(=O)[C@H](CC(N)=O)NC(=O)[C@@H]1C[C@@H](O)CN1C(=O)[C@@H](Cc1ccc(O)cc1)NC(C)=O)[C@@H](C)O)C(=O)N[C@@H](Cc1c[nH]c2ccccc12)C(N)=O
B17: des(1)-Ac-[D-Tyr2,Glu3,Thr5,Phe(4F)6,AzaGly7,Arg(Me)9,Trp10]MS10 (peptide)
peptide: Ac-[dY]ENT[Phe(4-F)][azaGly]L[Arg(Me)]W-NH2
SMILES: CNC(=N)NCCC[C@H](NC(=O)[C@H](CC(C)C)NC(=O)NNC(=O)[C@H](Cc1ccc(F)cc1)NC(=O)[C@@H](NC(=O)[C@H](CC(N)=O)NC(=O)[C@H](CCC(=O)O)NC(=O)[C@@H](Cc1ccc(O)cc1)NC(C)=O)[C@@H](C)O)C(=O)N[C@@H](Cc1c[nH]c2ccccc12)C(N)=O
B18: des(1)-Ac-[D-Tyr2,Lys3,Thr5,Phe(4F)6,AzaGly7,Arg(Me)9,Trp10]MS10 (peptide)
peptide: Ac-[dY]KNT[Phe(4-F)][azaGly]L[Arg(Me)]W-NH2
SMILES: CNC(=N)NCCC[C@H](NC(=O)[C@H](CC(C)C)NC(=O)NNC(=O)[C@H](Cc1ccc(F)cc1)NC(=O)[C@@H](NC(=O)[C@H](CC(N)=O)NC(=O)[C@H](CCCCN)NC(=O)[C@@H](Cc1ccc(O)cc1)NC(C)=O)[C@@H](C)O)C(=O)N[C@@H](Cc1c[nH]c2ccccc12)C(N)=O

Target: human OT7T175 (metastin receptor) (human) (UniProt Q969F8)
Sequence (Q969F8 whole entry L364H): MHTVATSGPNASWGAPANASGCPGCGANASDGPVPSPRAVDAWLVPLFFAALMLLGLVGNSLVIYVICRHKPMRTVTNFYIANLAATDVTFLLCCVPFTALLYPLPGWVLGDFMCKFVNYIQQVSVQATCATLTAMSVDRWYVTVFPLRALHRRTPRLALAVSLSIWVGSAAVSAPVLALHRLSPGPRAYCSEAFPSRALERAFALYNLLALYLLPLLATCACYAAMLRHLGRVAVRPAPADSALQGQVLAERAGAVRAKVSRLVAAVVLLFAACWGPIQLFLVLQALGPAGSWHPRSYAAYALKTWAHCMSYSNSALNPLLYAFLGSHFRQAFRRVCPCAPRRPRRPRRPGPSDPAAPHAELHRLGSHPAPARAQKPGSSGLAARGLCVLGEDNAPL
Assay: cell-based or functional assay

Binder	intracellular Ca ion level-increasing activity [specific activity to Metastin (1-54)] (relative to Metastin (1-54))
B1	2.6
B2	1.9
B3	1.3
Ac-[dY][His(3Me)]NTF[azaGly]L[Arg(Me)]W-NH2 [des(1)-Ac-[D-Tyr2,His(3Me)3,Thr5,AzaGly7,Arg(Me)9,Trp10]MS10]	1.1
Ac-[dY][Ala(Pip)]NTF[azaGly]L[Arg(Me)]W-NH2 (also: position 2 DL, both configurations) [des(1)-Ac-[D-Tyr2,DL-Ala(Pip)3,Thr5,AzaGly7,Arg(Me)9,Trp10]MS10]	2
B4	3.7
B5	1.3
B6	1.5
B7	1.8
B8	2.1
B9	1
B10	1.8
B11	8.8
B12	3.4
B13	3.2
B14	3.3
B15	0.7
B16	2.3
B17	2.7
B18	3.4
